# Data: the supplement of paper PMC7125110
# ± gives the standard error. This sample holds only a part of the variants without activity.
# B1: glmS ribozyme (parent)
# chain: AUAAAAGCGCCAGAACUACAGAAAUGUAGUUGACGAGGAGGAGGUUUAUCGAAUUUUCGGCGGAUGCCUCCAAA
# Variants of: B1
# Assay: self-cleavage kobs at 2500 uM GlcN6P; higher = faster cleavage; RNA array
# Conditions: with glucosamine-6-phosphate
# Method in brief: (§1)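 Glucosamine-6-phosphate in HEPES/KCl/Mg(OAc)2 buffer, at 40 μM to 10 mM, was flowed over barcoded ribozyme variants transcribed in situ by E. coli RNA polymerase on sequenced MiSeq chips. Tracking was through a hybridised Cy3 probe at 37 °C. kobs, kcat and KM came from exponential decay fits and weighted Michaelis–Menten fits of normalised per-tile medians.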
row,Variant,self-cleavage kobs at 2500 uM GlcN6P
1,AUAAAAGCGCCAGAACUACAGAAAUGUAGUUGACGAGGAGGAGGUUUAUCGACUUUUCGGCGGACGCCUCCAAA [A53C U65C],0.000159 ± 3.9e-05 s⁻¹
2,AUAAAAGCGCCAGAACUACAGAAAUGUAGUUGACGAGGAGGAGGUUUGUCGAAUAUUCGGCGGAUGCCUACAAA [A48G U55A C70A],8.47e-05 ± 2.9e-05 s⁻¹
3,AUAAAAGCGCCAGAACUACAGAAAUGUAGUUGACGAGGAGGAGGUUUACCGAAUUUUCGGCGGAUGCUUCCAAA [U49C C68U],< 1e-05 s⁻¹
4,AUAAAAGCGCCAGAACUACAGAAAUGUAGUUGACGAGGAGGAGGUUUAUCGUAUUUUCGACGGAUUCCUCCAAA [A52U G60A G66U],< 1e-05 s⁻¹
5,AUAAAAGCGCCAGAACUACAGAAAUGUAGUUGACGAGGAGGAGGUAUAUCGAAUUAUCGGCGGAUGGCUCCAAA [U46A U56A C67G],0.000143 ± 6.8e-05 s⁻¹
6,AUAAAAGCGCCAGAACUACAGAAAUGUAGUUGACGAGGAGGAGGUUUAUGGAAUUUUAGGCGGAUGCGUCCAAA [C50G C58A C68G],9.4e-05 ± 1.9e-05 s⁻¹
7,AUAAAAGCGCCAGAACUACAGAAAUGUAGUUGACGAGGAGGAGGUUCAUCGUAUUUUCGGCGGGUGCCUCCAAA [U47C A52U A64G],3.84e-05 ± 1.6e-05 s⁻¹
8,AUAAAAGCGCCAGAACUACAGAAAUGUAGUUGACGAGGAGGAGGUGUAUCGAAUUUUCGGCGUAUGCCUACAAA [U46G G63U C70A],< 1e-05 s⁻¹
9,AUAAAAGCGCCAGAACUACAGAAAUGUAGUUGACGAGGAGGAGGUUUAUUGAUUUUUCGGCCGAUGCCUCCAAA [C50U A53U G62C],< 1e-05 s⁻¹
10,AUAAAAGCGCCAGAACUACAGAAAUGUAGUUGACGAGGAGGAGGUUUAUCCAAUUUUCGGCGAAUGCAUCCAAA [G51C G63A C68A],< 1e-05 s⁻¹
11,AUAAAAGCGCCAGAACUACAGAAAUGUAGUUGACGAGGAGGAGGUUUAUCGAAGUUUCGGCGGAUGCUUUCAAA [U54G C68U C70U],0.00037 ± 6.8e-05 s⁻¹
12,AUAAAAGCGCCAGAACUACAGAAAUGUAGUUGACGAGGAGGAGGUUUAUCGGAUUUCCGGCGGAUGUCUCCAAA [A52G U57C C67U],0.000161 ± 7.8e-05 s⁻¹
13,AUAAAAGCGCCAGAACUACAGAAAUGUAGUUGACGAGGAGGAGGUUUAUUGAAUUUUCAGCGGAUGCCUGUAAA [C50U G59A C70G C71U],5.06e-05 ± 1.7e-05 s⁻¹
14,AUAAAAGCGCCAGAACUACAGAAAUGUAGUUGACGAGGAGGAGGUUUAUCCAAUUUUCGGCGGAUCCCUCAAAA [G51C G66C C71A],< 1e-05 s⁻¹
15,AUAAAAGCGCCAGAACUACAGAAAUGUAGUUGACGAGGAGGAGGUGUAUCGAAUUUUCGGCGGAAGGCUCCAAA [U46G U65A C67G],0.000131 ± 2.5e-05 s⁻¹
16,AUAAAAGCGCCAGAACUACAGAAAUGUAGUUGACGAGGAGGAGGUGUGUCGAAUUUGCGGCUGAUGCCUCCAAA [U46G A48G U57G G62U],< 1e-05 s⁻¹
17,AUAAAAGCGCCAGAACUACAGAAAUGUAGUUGACGAGGAGGAGGUAUUUCCAAUUUUCGGCGGAUGCCUCCAAA [U46A A48U G51C],< 1e-05 s⁻¹
18,AUAAAAGCGCCAGAACUACAGAAAUGUAGUUGACGAGGAGGAGGUGUAUCGAAUUUUCUUCGGAUGCCUCCAAA [U46G G59U G60U],< 1e-05 s⁻¹

row,Variant,self-cleavage kobs at 2500 uM GlcN6P
1,AUAAAAGCGCCAGAACUACAGAAAUGUAGUUGACGAGGAGGAGGUUUACCGAAUAUUCGGCCGAUGCCUCCAAA [U49C U55A G62C],< 1e-05 s⁻¹
2,AUAAAAGCGCCAGAACUACAGAAAUGUAGUUGACGAGGAGGAGGUUUAUCGAAUUCUUGGCGAAUGCCUCCAAA [U56C C58U G63A],< 1e-05 s⁻¹
3,AUAAAAGCGCCAGAACUACAGAAAUGUAGUUGACGAGGAGGAGGUUUAUAGAAUGUUCGGCGGAUGGCUCCAAA [C50A U55G C67G],9.38e-05 ± 3.7e-05 s⁻¹
4,AUAAAAGCGCCAGAACUACAGAAAUGUAGUUGACGAGGAGGAGGUUUAGCGAAGUUUCGGCGGAUGCGUCCAAA [U49G U54G C68G],6.25e-05 ± 2.4e-05 s⁻¹
5,AUAAAAGCGCCAGAACUACAGAAAUGUAGUUGACGAGGAGGAGGUUUAUCGAAGUUCCGGCGGAUGCCUCCAAA [U54G U57C],0.000126 ± 2.3e-05 s⁻¹
6,AUAAAAGCGCCAGAACUACAGAAAUGUAGUUGACGAGGAGGAGGUUUGUAGAAUUUUCGGCGGAUGCCGCCAAA [A48G C50A U69G],0.000106 ± 3e-05 s⁻¹
7,AUAAAAGCGCCAGAACUACAGAAAUGUAGUUGACGAGGAGGAGGUUGAUGGAAUUUUCGGCGGAUGCCUCCAAA [U47G C50G],4.35e-05 ± 1.2e-05 s⁻¹
8,AUAAAAGCGCCAGAACUACAGAAAUGUAGUUGACGAGGAGGAGGUUUAUCGCAUUUUCGGCGGAUGCCGCCAAA [A52C U69G],9.19e-05 ± 4.2e-05 s⁻¹
9,AUAAAAGCGCCAGAACUACAGAAAUGUAGUUGACGAGGAGGAGGUUUAUGGAAUUUUCGUGGGAAGCCUCCAAA [C50G G60U C61G U65A],9.15e-05 ± 3e-05 s⁻¹
10,AUAAAAGCGCCAGAACUACAGAAAUGUAGUUGACGAGGAGGAGGUUUAUCGACUUUGCGGCGGAUGUCUCCAAA [A53C U57G C67U],8.03e-05 ± 2.5e-05 s⁻¹
11,AUAAAAGCGCCAGAACUACAGAAAUGUAGUUGACGAGGAGGAGGUUUAUCGUGUUUUCGGCGGGUGCCUCCAAA [A52U A53G A64G],5.47e-05 ± 1.7e-05 s⁻¹
12,AUAAAAGCGCCAGAACUACAGAAAUGUAGUUGACGAGGAGGAGGUUUAUCGGACUUUCGGCGGAUGCCUUGAAA [A52G U54C C70U C71G],7e-05 ± 2.3e-05 s⁻¹
13,AUAAAAGCGCCAGAACUACAGAAAUGUAGUUGACGAGGAGGAGGUUUGUCGAAUUAUCGGCGGAUGCCGCCAAA [A48G U56A U69G],7.7e-05 ± 2.2e-05 s⁻¹
14,AUAAAAGCGCCAGAACUACAGAAAUGUAGUUGACGAGGAGGAGGUUUACCGAAUUUUCGGCGUAUCCCUCCAAA [U49C G63U G66C],< 1e-05 s⁻¹
15,AUAAAAGCGCCAGAACUACAGAAAUGUAGUUGACGAGGAGGAGGUCUAUCGAAUUUUCGACGGAUGCCUGCAAA [U46C G60A C70G],< 1e-05 s⁻¹
16,AUAAAAGCGCCAGAACUACAGAAAUGUAGUUGACGAGGAGGAGGUGUAUCUAAUUUUCAGCGGAUGCCUCCAAA [U46G G51U G59A],< 1e-05 s⁻¹
17,AUAAAAGCGCCAGAACUACAGAAAUGUAGUUGACGAGGAGGAGGUUCAUCGGAUUUUCGCCGGAGGACUCCAAA [U47C A52G G60C U65G C67A],< 1e-05 s⁻¹

# Variants of: B1
# Assay: self-cleavage kobs at 10000 uM GlcN6P; higher = faster cleavage; RNA array
# Conditions: with glucosamine-6-phosphate
# Method in brief: as §1
row,Variant,self-cleavage kobs at 10000 uM GlcN6P
1,AUAAAAGCGCCAGAACUACAGAAAUGUAGUUGACGAGGAGGAGGUAUAUCGAAUUAUCGGCGGAUGGCUCCAAA [U46A U56A C67G],0.000316 ± 7.6e-05 s⁻¹
2,AUAAAAGCGCCAGAACUACAGAAAUGUAGUUGACGAGGAGGAGGUUUAUCGGAUUUCCGGCGGAUGUCUCCAAA [A52G U57C C67U],0.000116 ± 2.5e-05 s⁻¹
